# What was measured:
# [1] = target: NS3-4A protease Q80K, single-chain proteolytic domain (NS4A21-32-GSGS-NS3 3-181) (hepatitis C virus)
# [2] = target: NS3-4A protease Q80K-A91T, single-chain proteolytic domain (NS4A21-32-GSGS-NS3 3-181) (hepatitis C virus)
# [3] = target: NS3-4A protease Q80K-S174N, single-chain proteolytic domain (NS4A21-32-GSGS-NS3 3-181) (hepatitis C virus)
# [4] = target: NS3-4A protease Q80K-A91S, single-chain proteolytic domain (NS4A21-32-GSGS-NS3 3-181) (hepatitis C virus)
# [5] = target: NS3-4A protease Q80K-A91T-S174N, single-chain proteolytic domain (NS4A21-32-GSGS-NS3 3-181) (hepatitis C virus)
# [6] = target: NS3-4A protease Q80K-A91S-S174N, single-chain proteolytic domain (NS4A21-32-GSGS-NS3 3-181) (hepatitis C virus)
# [7] = target: NS3-4A protease WT, single-chain proteolytic domain (NS4A21-32-GSGS-NS3 3-181) (hepatitis C virus)
substance,measurement,setting,value
viral polyprotein substrate derived from the NS4A/4B cleavage site (SensoLyte 520 HCV; Anaspec) (peptide),KM (μM) of cleavage of the NS4A/4B FRET peptide substrate by purified protease (FRET-based protease assay),[1],1.44 µM
same,KM (μM) of cleavage of the NS4A/4B FRET peptide substrate by purified protease (FRET-based protease assay),[2],0.48 µM
same,KM (μM) of cleavage of the NS4A/4B FRET peptide substrate by purified protease (FRET-based protease assay),[3],0.14 µM
same,KM (μM) of cleavage of the NS4A/4B FRET peptide substrate by purified protease (FRET-based protease assay),[4],0.56 µM
same,KM (μM) of cleavage of the NS4A/4B FRET peptide substrate by purified protease (FRET-based protease assay),[5],0.67 µM
same,KM (μM) of cleavage of the NS4A/4B FRET peptide substrate by purified protease (FRET-based protease assay),[6],8.16 µM
same,KM (μM) of cleavage of the NS4A/4B FRET peptide substrate by purified protease (FRET-based protease assay),[7],2.71 µM

# Reference: paper PMC8405986
